For one substance, % reduction of the binding of the second commercial antibody results are on record in patent US8337848.

For this assay, the target named is amyloid precursor protein (APP), full length (106 kDa), from MOG-G-UVW cell lysate (human) (UniProt P05067). The experiment in a line: competition sandwich ELISA on APP from MOG cell lysate; competitor: APP DuoSet detection antibody; irrelevant IgG at 20 µg/ml.
UniProt P05067, sequence (P05067 18-770): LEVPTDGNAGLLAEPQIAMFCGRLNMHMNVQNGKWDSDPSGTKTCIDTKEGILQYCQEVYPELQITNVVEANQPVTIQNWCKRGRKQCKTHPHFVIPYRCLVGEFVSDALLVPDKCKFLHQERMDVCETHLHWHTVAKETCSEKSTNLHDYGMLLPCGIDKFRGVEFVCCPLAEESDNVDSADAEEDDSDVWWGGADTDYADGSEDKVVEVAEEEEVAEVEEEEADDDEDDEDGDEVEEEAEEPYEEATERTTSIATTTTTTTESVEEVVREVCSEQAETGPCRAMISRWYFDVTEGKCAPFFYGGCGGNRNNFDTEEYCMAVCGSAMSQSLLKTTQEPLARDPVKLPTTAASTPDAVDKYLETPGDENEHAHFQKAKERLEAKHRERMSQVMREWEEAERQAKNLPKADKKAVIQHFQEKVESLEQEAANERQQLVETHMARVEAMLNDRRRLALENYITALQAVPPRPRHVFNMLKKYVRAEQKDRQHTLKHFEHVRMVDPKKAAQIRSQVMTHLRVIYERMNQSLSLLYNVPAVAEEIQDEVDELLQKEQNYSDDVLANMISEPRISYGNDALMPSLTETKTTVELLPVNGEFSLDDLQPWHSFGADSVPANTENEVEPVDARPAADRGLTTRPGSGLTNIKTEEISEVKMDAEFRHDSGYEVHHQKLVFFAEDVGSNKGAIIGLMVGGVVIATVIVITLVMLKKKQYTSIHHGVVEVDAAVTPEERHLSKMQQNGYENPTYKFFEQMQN

“irrelevant mouse IgG antibody (Perbio Science)” displayed a % reduction of the binding of the second commercial antibody of 3.3%.
